Measured values reported in patent US20130078251A1 (Hoffmann-La Roche, published 2013).

How the values were obtained:
[1] = target: T1, recombinant D3 domain of MCSP (UniProt Q6UVK1 1582-2224, limits assumed); assay: Biacore T100, antibody amine-coupled on CM5 chip, MCSP D3 as analyte, 1:1 model, 25 °C
T1 construct: domain: D3 domain; also called MCSP D3
T1 sequence (looked up): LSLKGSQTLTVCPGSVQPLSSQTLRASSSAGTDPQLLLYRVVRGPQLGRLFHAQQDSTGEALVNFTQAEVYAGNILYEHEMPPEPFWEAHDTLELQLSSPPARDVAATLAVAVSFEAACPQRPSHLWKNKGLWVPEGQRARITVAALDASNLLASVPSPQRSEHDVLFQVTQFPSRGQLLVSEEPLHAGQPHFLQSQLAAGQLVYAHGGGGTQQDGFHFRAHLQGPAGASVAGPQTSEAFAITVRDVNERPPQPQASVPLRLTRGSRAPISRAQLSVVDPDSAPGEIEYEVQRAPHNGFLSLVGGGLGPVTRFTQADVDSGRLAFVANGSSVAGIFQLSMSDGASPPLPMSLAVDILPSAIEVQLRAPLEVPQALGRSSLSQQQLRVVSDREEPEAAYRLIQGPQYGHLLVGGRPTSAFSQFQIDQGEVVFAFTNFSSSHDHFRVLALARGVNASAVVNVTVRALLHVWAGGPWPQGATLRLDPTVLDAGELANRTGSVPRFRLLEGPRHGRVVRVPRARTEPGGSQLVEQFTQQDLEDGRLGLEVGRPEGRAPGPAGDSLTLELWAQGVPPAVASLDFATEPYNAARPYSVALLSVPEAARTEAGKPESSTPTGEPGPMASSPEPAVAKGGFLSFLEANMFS
Protocol: (§1) The monovalent binding affinities for the chimeric LC007 and the humanized variant M4-3 ML2 were determined using a Biacore assay. Briefly, the antibodies were chemically immobilized on a CM5 chip (Biacore) via amine-coupling (activation with EDC-NHS, coupling of 5000 RU for each antibody, deactivation with ethanolamine). The recombinant D3 domain of MCSP was used as analyte. The experiment was performed at 25° and 37° in HBS-EP+ running buffer on a Biacore T100. […] The surface was regenerated between injections with 10 mM glycine pH 2 for 30 s. The sensorgrams were fitted with the 1:1 binding model (with RI=0 and Rmax=local) to determine the Kd.

[2] = target: T1, recombinant D3 domain of MCSP; assay: Biacore T100, antibody amine-coupled on CM5 chip, MCSP D3 as analyte, 1:1 model, 37 °C
Protocol: as §1

[3] = target: T2, Construct 1, CSPG repeat 15 of human MCSP with the original transmembrane region (human, UniProt Q6UVK1 2044-2246); assay: FACS titration on HEK-EBNA cells transfected with the construct
T2 construct: Expressed on HEK-EBNA cells; also called construct including only the MCSP repeat 15 and the natural transmembrane domain
T2 sequence: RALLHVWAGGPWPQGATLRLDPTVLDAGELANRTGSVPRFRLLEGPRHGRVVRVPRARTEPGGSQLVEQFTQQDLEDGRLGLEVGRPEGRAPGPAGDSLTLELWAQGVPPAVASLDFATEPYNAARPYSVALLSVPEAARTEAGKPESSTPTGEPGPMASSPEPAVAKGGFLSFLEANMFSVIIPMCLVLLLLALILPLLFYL

[4] = target: T3, Construct 4, CSPG repeat 12-15 of human MCSP with the original transmembrane region (human, UniProt Q6UVK1 1702-2246); assay: as above
T3 construct: Expressed on HEK-EBNA cells
T3 sequence: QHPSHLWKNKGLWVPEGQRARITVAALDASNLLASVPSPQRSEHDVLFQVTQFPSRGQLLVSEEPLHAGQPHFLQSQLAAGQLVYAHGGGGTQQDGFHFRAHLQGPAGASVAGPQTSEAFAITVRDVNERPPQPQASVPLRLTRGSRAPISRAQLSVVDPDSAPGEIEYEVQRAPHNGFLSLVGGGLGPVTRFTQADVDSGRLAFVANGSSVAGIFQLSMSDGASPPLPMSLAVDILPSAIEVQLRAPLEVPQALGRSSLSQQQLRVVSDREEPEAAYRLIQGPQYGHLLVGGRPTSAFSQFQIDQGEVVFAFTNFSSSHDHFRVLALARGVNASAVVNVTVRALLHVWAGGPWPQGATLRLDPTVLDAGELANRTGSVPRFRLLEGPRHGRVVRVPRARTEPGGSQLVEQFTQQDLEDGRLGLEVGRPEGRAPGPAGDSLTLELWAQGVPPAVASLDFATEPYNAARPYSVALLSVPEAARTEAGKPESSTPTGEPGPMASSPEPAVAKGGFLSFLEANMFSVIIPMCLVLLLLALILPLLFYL

[5] = target: T4, human MCSP (melanoma chondroitin sulfate proteoglycan) on melanoma cells (human, UniProt Q6UVK1 30-2322); assay: FACS titration on A375 melanoma cells, FITC anti-human IgG Fc secondary antibody
T4 construct: Endogenous MCSP of human melanoma cell lines; also called surface MCSP; native form of MCSP
T4 sequence (Q6UVK1 30-2322 limits assumed): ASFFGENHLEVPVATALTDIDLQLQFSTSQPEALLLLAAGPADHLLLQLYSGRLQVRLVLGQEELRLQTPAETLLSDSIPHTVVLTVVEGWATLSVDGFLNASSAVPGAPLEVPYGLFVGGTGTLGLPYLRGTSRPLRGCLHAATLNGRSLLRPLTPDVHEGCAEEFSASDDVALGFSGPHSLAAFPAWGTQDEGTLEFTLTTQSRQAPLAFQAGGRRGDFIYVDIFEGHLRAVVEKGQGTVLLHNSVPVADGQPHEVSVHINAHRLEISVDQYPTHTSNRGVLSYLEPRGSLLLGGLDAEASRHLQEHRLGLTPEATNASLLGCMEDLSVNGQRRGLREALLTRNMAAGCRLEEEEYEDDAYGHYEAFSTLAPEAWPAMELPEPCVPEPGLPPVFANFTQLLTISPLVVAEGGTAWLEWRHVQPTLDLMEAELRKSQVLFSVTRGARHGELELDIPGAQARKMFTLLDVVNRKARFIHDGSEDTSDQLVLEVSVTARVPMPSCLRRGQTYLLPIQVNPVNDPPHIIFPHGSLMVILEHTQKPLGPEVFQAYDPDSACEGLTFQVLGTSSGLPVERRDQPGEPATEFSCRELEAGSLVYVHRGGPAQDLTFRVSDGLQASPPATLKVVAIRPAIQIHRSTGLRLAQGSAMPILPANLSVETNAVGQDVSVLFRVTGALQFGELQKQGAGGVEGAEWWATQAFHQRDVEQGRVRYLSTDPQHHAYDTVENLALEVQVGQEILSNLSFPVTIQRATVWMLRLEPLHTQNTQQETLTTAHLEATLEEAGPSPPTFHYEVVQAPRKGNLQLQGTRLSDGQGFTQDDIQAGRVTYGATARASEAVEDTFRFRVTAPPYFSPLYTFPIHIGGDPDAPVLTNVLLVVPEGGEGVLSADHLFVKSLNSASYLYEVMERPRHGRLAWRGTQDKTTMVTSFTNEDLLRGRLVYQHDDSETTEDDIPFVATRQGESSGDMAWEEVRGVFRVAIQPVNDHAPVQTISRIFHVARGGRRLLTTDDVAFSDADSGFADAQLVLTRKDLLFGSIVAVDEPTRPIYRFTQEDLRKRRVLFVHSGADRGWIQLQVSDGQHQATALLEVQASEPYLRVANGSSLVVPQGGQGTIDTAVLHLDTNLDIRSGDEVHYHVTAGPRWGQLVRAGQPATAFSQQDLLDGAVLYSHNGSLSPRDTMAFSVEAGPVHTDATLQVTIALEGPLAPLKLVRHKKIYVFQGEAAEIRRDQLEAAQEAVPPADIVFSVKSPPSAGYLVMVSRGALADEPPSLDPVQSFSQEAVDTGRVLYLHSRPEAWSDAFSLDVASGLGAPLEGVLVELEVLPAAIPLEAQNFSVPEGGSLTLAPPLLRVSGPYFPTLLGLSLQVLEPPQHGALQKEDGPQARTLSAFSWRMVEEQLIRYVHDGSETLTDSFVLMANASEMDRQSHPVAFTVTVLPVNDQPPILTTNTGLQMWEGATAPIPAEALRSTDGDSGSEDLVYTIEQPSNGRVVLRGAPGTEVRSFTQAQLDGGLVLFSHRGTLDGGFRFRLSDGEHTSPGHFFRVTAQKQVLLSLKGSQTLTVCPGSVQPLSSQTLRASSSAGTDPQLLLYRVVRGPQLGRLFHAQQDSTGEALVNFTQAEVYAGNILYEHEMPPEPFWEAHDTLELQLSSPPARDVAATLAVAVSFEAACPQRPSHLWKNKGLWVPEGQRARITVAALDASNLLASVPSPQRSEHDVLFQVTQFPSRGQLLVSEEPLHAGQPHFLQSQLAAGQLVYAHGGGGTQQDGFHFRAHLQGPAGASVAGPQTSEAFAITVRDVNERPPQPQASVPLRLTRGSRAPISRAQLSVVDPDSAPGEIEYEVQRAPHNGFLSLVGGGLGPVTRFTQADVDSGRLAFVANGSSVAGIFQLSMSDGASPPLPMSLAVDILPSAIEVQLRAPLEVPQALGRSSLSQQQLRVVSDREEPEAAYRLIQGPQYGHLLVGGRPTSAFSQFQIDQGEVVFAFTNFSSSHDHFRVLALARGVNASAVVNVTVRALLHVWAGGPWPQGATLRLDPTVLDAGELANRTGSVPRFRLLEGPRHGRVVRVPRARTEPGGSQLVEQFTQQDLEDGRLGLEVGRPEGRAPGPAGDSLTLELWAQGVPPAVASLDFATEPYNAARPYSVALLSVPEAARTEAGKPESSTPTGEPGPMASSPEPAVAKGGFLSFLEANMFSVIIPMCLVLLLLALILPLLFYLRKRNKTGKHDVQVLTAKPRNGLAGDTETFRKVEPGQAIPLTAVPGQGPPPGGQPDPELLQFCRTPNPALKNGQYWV
Protocol: (§2) Binding activity was determined by the following method. Target cells were detached from culture flask with cell dissociation buffer, counted and checked for viability. Cells were resuspended and adjusted to 1.111×10⁶ (viable) cells/ml in PBS-0.1% BSA. 180 μl of this suspension were transferred to each well (200,000 cells/well) in a round bottom 96-well-plate, centrifuged for 4 min, at 400 g, and resuspended. 20 μl of antibody dilutions in PBS-0.1% BSA (from 10 μg/ml to 0.002 μg/ml) were added to each well. The samples were centrifuged for 4 min, at 400 g, and resuspended. Secondary antibody, FITC-conjugated AffiniPure F(ab′)2 fragment goat anti-human IgG Fcg Fragment Specific (Jackson Immuno Research Lab #109-096-098)), was added and the sample centrifuged for 4 min, at 400 g, and resuspended. Fluorescence was measured in flow cytometer (e.g. FACS Canto II). Antibody 9.2.27, described in Morgan A C Jr, Galloway D R, Reisfeld R A. Hybridoma. 1981; 1(1):27-36.; GenBank Accession Numbers: GI:20797193 and GI:20797189 for light and heavy chain respectively, was used as a reference (FIG. 2). Human melanoma cell-lines Colo38, A2058, and A375 were used. Giacomini et al. 1985 (for Colo38). Marquardt H, Todaro G J. J Biol Chem. 1982 May 10; 257(9):5220-5 (for A2058). Geiser M, Schultz D, Le Cardinal A, Voshol H, García-Echeverría C. Cancer Res. 1999 Feb. 15; 59(4):905-10 (for A375).

[6] = target: T4, human MCSP (melanoma chondroitin …); assay: FACS titration on A2058 melanoma cells, FITC anti-human IgG Fc secondary antibody
Protocol: as §2

[7] = target: T4, human MCSP (melanoma chondroitin …); assay: FACS titration on Colo38 melanoma cells, FITC anti-human IgG Fc secondary antibody
Protocol: as §2

[8] = target: T5, cynomolgus MCSP D3 domain expression construct (cynomolgus, UniProt Q6UVK1 1582-2224 (human entry), limits assumed); assay: flow cytometry titration on HEK-EBNA cells electroporated with the FLAG-tagged D3 domain construct
T5 construct: also called cynomolgus construct; cynomolgus antigen
T5 chain: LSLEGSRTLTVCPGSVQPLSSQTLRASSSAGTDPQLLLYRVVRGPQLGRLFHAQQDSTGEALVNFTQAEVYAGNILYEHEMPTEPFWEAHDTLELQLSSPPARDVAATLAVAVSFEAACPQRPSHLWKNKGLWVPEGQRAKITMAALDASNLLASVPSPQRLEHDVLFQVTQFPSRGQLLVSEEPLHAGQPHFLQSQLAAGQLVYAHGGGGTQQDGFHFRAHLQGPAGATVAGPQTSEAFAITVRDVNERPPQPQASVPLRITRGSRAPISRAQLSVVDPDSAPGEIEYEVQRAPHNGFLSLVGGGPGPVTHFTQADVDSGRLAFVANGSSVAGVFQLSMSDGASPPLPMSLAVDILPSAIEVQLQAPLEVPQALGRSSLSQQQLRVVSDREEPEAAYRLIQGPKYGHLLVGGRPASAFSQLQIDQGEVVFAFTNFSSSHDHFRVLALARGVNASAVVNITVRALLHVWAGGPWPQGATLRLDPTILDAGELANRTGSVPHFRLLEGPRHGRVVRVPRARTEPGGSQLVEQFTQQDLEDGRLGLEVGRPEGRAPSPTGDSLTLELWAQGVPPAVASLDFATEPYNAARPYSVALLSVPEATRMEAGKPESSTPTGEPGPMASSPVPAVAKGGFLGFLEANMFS
Source text: (§3) An expression construct was generated that included the C-terminal part of the cynomolgus MCSP protein, a signal peptide for secretion and a N-terminal FLAG-tag (SEQ ID NO: 8) to test for crossreactivity towards the cynomolgus antigen. This domain was referred to as the D3 domain Tillet, F. et. Al, J. Biol. Chem. 272: 10769-10776 (1997). A similar construct was done for the human counterpart (SEQ ID NO: 9). An expression plasmid encoding for these two construct was electroporated into HEK-EBNA cells, and expression was confirmed with an anti-FLAG antibody. Binding of LC007 antibody was then tested by flow cytometry.

[9] = target: T6, human MCSP D3 domain expression construct (human, UniProt Q6UVK1 1582-2224, limits assumed); assay: as above
T6 construct: Built like the cynomolgus construct (signal peptide, N-terminal FLAG-tag); also called corresponding human expression construct; human counterpart
T6 sequence: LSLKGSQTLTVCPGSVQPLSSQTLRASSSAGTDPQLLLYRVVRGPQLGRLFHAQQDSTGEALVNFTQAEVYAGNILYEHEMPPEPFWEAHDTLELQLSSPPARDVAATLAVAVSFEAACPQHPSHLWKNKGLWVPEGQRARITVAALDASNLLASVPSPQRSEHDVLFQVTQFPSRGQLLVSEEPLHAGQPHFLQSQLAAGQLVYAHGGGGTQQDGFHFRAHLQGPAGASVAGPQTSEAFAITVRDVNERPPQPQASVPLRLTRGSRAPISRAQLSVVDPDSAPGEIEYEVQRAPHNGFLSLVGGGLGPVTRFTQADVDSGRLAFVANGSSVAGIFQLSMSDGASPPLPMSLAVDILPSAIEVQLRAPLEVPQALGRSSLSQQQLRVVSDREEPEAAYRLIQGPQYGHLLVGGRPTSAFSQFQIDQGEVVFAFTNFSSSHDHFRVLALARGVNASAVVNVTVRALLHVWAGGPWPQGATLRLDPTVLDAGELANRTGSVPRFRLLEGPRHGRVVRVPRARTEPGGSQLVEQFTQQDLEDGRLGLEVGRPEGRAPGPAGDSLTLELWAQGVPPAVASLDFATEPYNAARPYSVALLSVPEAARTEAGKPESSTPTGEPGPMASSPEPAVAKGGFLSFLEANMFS
Source text: as §3

Binder | Kd [1] [nM] | Kd [2] [nM] | binding result [3] | EC50 (read off the curve) [4] [µg/mL] | EC50 (read off the curve) [5] [µg/mL] | EC50 (read off the curve) [6] [µg/mL] | EC50 (read off the curve) [7] [µg/mL] | EC50 (read off the curve) [8] [µg/mL] | EC50 (read off the curve) [9] [µg/mL]
humanized variant M4-3 ML2 (antibody, human IgG1, kappa, V domains shown, also called M4-3 ML2 antibody) VH: QVQLQESGPGLVKPSQTLSLTCTVSGGSITSGYYWNWIRQHPGKGLEWIGYITYDGSNNYNPSLKSRVTISRDTSKNQFSLKLSSVTAADTAVYYCADFDYWGQGTLVTVSS VL: DIQMTQSPSSLSASVGDRVTITCRASQGIRNYLNWYQQKPGKAPKLLIYYTSSLHSGVPSRFSGSGSGTDFTLTISSLQPEDFATYYCQQYSKLPWTFGQGTKVEIKR | 11.4 | 16.6 |  |  |  |  |  |  | 
chimeric antibody LC007 (antibody, human IgG1, kappa, V domains shown, also called LC007 antibody; chimeric LC007) VH: EVQLQESGPGLVKPSQSLSLTCSVTGYSITSGYYWNWIRQFPGNKLEWMGYITYDGSNNYNPSLKNRISITRDTSKNQFFLKLNSVTTEDTATYYCADFDYWGQGTTLTVSS VL: DIVLTQSPSSLSASLGDRVTISCSASQGIRNYLNWYQQRPDGTVKLLIYYTSSLHSGVPSRFSGSGSGTDYSLTISNLEPEDIATYYCQQYSKLPWTFGGGTKLEIKR | 9.8 | 10.8 | no binding (tested: 5 ug/ml) | ~0.3 | ~0.05 | ~0.03 | ~0.05 | ~0.1 | ~0.08
